# In the RNAGym collection of RNA variant scans (doi:10.7554/elife.80360):
# B1: HDV Ribozyme (parent)
# chain: GGCCGGCAUGGUCCCAGCCUCCUCGCUGGCGCCGGCUGGGCAACAUUCCGAGGGGACCGUCCCCUCGGUAAUGGCGAAUGGGACCCA
# Variants of: B1
# Assay: self-cleavage, relative activity (ratio to wild type); higher = more cleavage; co-transcriptional
row,Variant,self-cleavage
1,CGCCGGCAUGGUCCCAGCGUCCUCGCUGGCGCCGGCUGGGCAACAUUCCGAGGGGACCGUCCCCUCGGUAAUGGCGAAUGGGACCCA [G1C C19G],0
2,CGCCGGCAUGGUCCCAGCAUCCUCGCUGGCGCCGGCUGGGCAACAUUCCGAGGGGACCGUCCCCUCGGUAAUGGCGAAUGGGACCCA [G1C C19A],0.201
3,CGCCGGCAUGGUCCCAGCCUCCUCGCUGGCGCCGGCUGGGCACCAUUCCGAGGGGACCGUCCCCUCGGUAAUGGCGAAUGGGACCCA [G1C A43C],0.332
4,CGCCGGCAUGGUCCCAGCCUCCUCGCUGGCGCCGGCUGGGCAUCAUUCCGAGGGGACCGUCCCCUCGGUAAUGGCGAAUGGGACCCA [G1C A43U],0.135
5,CGCCGGCAUGGUCCCAGCCUCCUCGCUGGCGCCGGCUGGGCAACAUUCCGAGGGGACCGUCCCCUCGGUAAUGGCGAAUGGGGCCCA [G1C A83G],0.151
6,CGCCGGCAUGGUCCCAGCCUCCUCGCUGGCGCCGGCUGGGCAACAUUCCGAGGGGACCGUCCCCUCGGUAAUGGCGAAUGGGUCCCA [G1C A83U],0.252
7,CGCCGGCAUGGUCCCAGCCUCCUCGCUGGCGCCGGCUGGGCAACAUUCCGAGGGGACCGUCCCCUCGGUACUGGCGAAUGGGACCCA [G1C A71C],0.256
8,CGCCGGCAUGGUCCCAGCCUCCUCGCUGGCGCCGGCUGGGCAACAUUCCGAGGGGACCGUCCCCUCGGUAGUGGCGAAUGGGACCCA [G1C A71G],0
9,CGCCGGCAUGGUCCCAGCCUCCUCGCUGGCGCCGGCUGGGCAACAUUCCGCGGGGACCGUCCCCUCGGUAAUGGCGAAUGGGACCCA [G1C A51C],0.133
10,CGCCGGCAUGGUCCCAGCCUCCUCGCUGGCGCCGGCUGGGCAACAUUCCGGGGGGACCGUCCCCUCGGUAAUGGCGAAUGGGACCCA [G1C A51G],0.396
11,CGCCGGCAUGGUCGCAGCCUCCUCGCUGGCGCCGGCUGGGCAACAUUCCGAGGGGACCGUCCCCUCGGUAAUGGCGAAUGGGACCCA [G1C C14G],0.0615
12,CGCCGGCAUGGUCACAGCCUCCUCGCUGGCGCCGGCUGGGCAACAUUCCGAGGGGACCGUCCCCUCGGUAAUGGCGAAUGGGACCCA [G1C C14A],0.0811
13,CGCCGGCAUGGUCCCAGCCUCCUCGCUGGCGCCGGCUGGGCAACGUUCCGAGGGGACCGUCCCCUCGGUAAUGGCGAAUGGGACCCA [G1C A45G],0.192
14,CGCCGGCAUGGUCCCAGCCUCCUCGCUGGCGCCGGCUGGGCAACUUUCCGAGGGGACCGUCCCCUCGGUAAUGGCGAAUGGGACCCA [G1C A45U],0
15,CGGCGGCAUGGUCCCAGCCUCCUCGCUGGCGCCGGCUGGGCAACAUUCCGAGGGGACCGUCCCCUCGGUAAUGGCGAAUGGGACCCA [G1C C3G],0.443
16,CGCCGGCAUGGUCCCAGCCUCCUCGCUGGCGCCGGCUGGGCAACAUUCCGAGGGGACCGUCCCCUCGGUCAUGGCGAAUGGGACCCA [G1C A70C],0.185

row,Variant,self-cleavage
1,CGCCGGCAUGGUCCCAGCCUCCUCGCUGGCGCCGGCUGGGCAACAUUCCGAGGGGUCCGUCCCCUCGGUAAUGGCGAAUGGGACCCA [G1C A56U],0.17
2,CGCCGGCCUGGUCCCAGCCUCCUCGCUGGCGCCGGCUGGGCAACAUUCCGAGGGGACCGUCCCCUCGGUAAUGGCGAAUGGGACCCA [G1C A8C],0
3,CGCCGGCUUGGUCCCAGCCUCCUCGCUGGCGCCGGCUGGGCAACAUUCCGAGGGGACCGUCCCCUCGGUAAUGGCGAAUGGGACCCA [G1C A8U],0.0978
4,CGCCGGCAUGGUCCCAGCCUCCUCGCUGGCGCCGGCUGGGCAACAUUCCGAGGGGACCGUCCCCUCGGUAAUGGCGGAUGGGACCCA [G1C A77G],0
5,CGCCGGCAUGGUCCCAGCCUCCUCGCUGGCGCCGGCUGGGCAACAUUCCGAGGGGACCGUCCCCUCGGUAAUGGCGCAUGGGACCCA [G1C A77C],0
6,CGCCGGCAUGGUCCCUGCCUCCUCGCUGGCGCCGGCUGGGCAACAUUCCGAGGGGACCGUCCCCUCGGUAAUGGCGAAUGGGACCCA [G1C A16U],0.111
7,CGCCGGCAUGGUCCCCGCCUCCUCGCUGGCGCCGGCUGGGCAACAUUCCGAGGGGACCGUCCCCUCGGUAAUGGCGAAUGGGACCCA [G1C A16C],0.128
8,CGCCGGCAUGGUACCAGCCUCCUCGCUGGCGCCGGCUGGGCAACAUUCCGAGGGGACCGUCCCCUCGGUAAUGGCGAAUGGGACCCA [G1C C13A],0.0386
9,CGCCGGCAUGGUCCCAGCCUCCUCGCUGGCGCCGGCUGGGCAACAUUCCGAGGGGACCGUCCCCUCGGUAAUGGCGAGUGGGACCCA [G1C A78G],0.0573
10,CGCCGGCAUGGUCCCAGCCUCCUCGCUGGCGCCGGCUGGGCCACAUUCCGAGGGGACCGUCCCCUCGGUAAUGGCGAAUGGGACCCA [G1C A42C],0.0639
11,CGCCGGCAUGGUCCGAGCCUCCUCGCUGGCGCCGGCUGGGCAACAUUCCGAGGGGACCGUCCCCUCGGUAAUGGCGAAUGGGACCCA [G1C C15G],0.166
12,CGCCGGCAUGGUCCAAGCCUCCUCGCUGGCGCCGGCUGGGCAACAUUCCGAGGGGACCGUCCCCUCGGUAAUGGCGAAUGGGACCCA [G1C C15A],0
13,CGCCGGCAUGGUCCCAGCCUCCUCGCUGGCGCCGGCUGGGCAACAUUCCGAGGGGACCGUCCCCUCGGUAAUGGCGAAUGGGACCCU [G1C A87U],0.104
14,AGCCGGCAUGGUCCCAGCCUCCUCGCUGGCGCCGGCUGGGCAACAUUCCGAGGGGACCGUCCCCUCGGUAAUGGCGAACGGGACCCA [G1A U79C],0.119
15,AGCCGGCAUGGUCCCAGCCUCCUCGCUGGCGCCGGCUGGGCAACAUUCCGAGGGGACCGUCCCCUCGGUAAUGGCGAAAGGGACCCA [G1A U79A],0.208
16,CGCGGGCAUGGUCCCAGCCUCCUCGCUGGCGCCGGCUGGGCAACAUUCCGAGGGGACCGUCCCCUCGGUAAUGGCGAAUGGGACCCA [G1C C4G],0
